Tests used:
[1] = test system: ORC (Orc1-6);MCM (Mcm2-7);Cdc6;Cdt1 (Saccharomyces cerevisiae (overexpressed in strain OY001);Saccharomyces cerevisiae (overexpressed in strain OY001);Saccharomyces cerevisiae;Saccharomyces cerevisiae); experiment: single-molecule fluorescence, optical tweezers; details: 2 nM ORC, Single-molecule optical tweezers with confocal fluorescence, ATP present, 5 nM Cdc6, 10 nM MCM, high-salt wash 0.5 M NaCl, buffer, pH and temperature …
[2] = test system: ORC (Orc1-6);Cdc6 (Saccharomyces cerevisiae (overexpressed in strain OY001);Saccharomyces cerevisiae); experiment: single-molecule fluorescence, optical tweezers; details: biotinylated ends, H2A K120C, Single-molecule optical tweezers with confocal fluorescence, ATP present, 2 nM ORC, 5 nM Cdc6, 10 nM MCM, high-salt wash 0.5 M NaCl, buffer, pH and temperature …
[3] = biological target: S.c. nucleosome: recombinant S. cerevisiae histone octamer (H2A K120C, fluorescently labeled) assembled on λ_(ARS1) DNA (S. cerevisiae) (UniProt P04911); experiment: single-molecule fluorescence colocalisation (dual-trap optical tweezers with confocal microscopy); nucleosomes sparsely assembled on λ_(ARS1) DNA tethered between streptavidin beads; 2 nM Cy3- or LD650-ORC and 5 nM Cdc6 in solution; 25 mM Tris-OAc pH 7.5, 50 mM potassium glutamate, 10 mM Mg(OAc)2, 2.5 mM ATP; room temperature
[4] = biological target: S.c. Mcm2-7 complex with S6- and 3xFlag-tagged Mcm3, fluorescently labeled (S. cerevisiae) (UniProt P29469); experiment: single-molecule photobleaching step counting (optical tweezers with confocal microscopy); LD650-MCM on nucleosome-free λ_(ARS1) DNA with unlabeled ORC, Cdc6, Cdt1; oxygen scavenging system omitted; labeling efficiency of MCM ~60%; two hexamers to a double hexamer on DNA

λARS1 DNA, non-ARS1 positions gave a binding signal ([1]; 10 nM MCM, 5 nM Cdc6, biotinylated ends, scale: % of stably bound MCM located at non-ARS1 positions) of 86 and a binding signal ([1]; 0.5 M NaCl wash, biotinylated ends, scale: % of MCM loaded) of 25.
“X.l. nucleosomes on λARS1 DNA (all positions)” showed a binding signal (% of nucleosomes with stably bound ORC) ([2]; Xenopus laevis octamer) of over 90.
“S.c. nucleosomes on λARS1 DNA (all positions)” showed a binding signal (% of nucleosomes with stably bound ORC) ([2]; S. cerevisiae octamer) of over 90.
In the case of λARS1 DNA, ARS1 site, the binding signal ([1]; 0.5 M NaCl wash, biotinylated ends (biotin-11-dUTP, biotin-14-dCTP fill-in), scale: % of MCM loaded) is reported as 62.
For “S.c. origin recognition complex (Orc1-6) with S6-3xFlag-Orc1, fluorescently labeled (from UniProt P54784 1-914; P32833 1-620; P54790 1-616; P54791 1-529; P50874 1-479; P38826 1-435)”, the fraction of nucleosomes with a stably bound ORC at 2 nM ORC [3] was over 90%.
“S.c. Mcm2-7 complex with S6- and 3xFlag-tagged Mcm3, fluorescently labeled, P29469 1-868; P24279 1-971; P30665 1-933; P29496 1-775; P53091 1-1017; P38132 1-845” showed a fraction of MCM with two-step photobleaching [4] of 36% and a stoichiometry N [4] of 2.
